In paper PMC5557964:

Target: citrullinated fibronectin N-terminal 30 kDa fragment (treated with PAD2 or PAD4)
Experiment: ELISA; FN N-terminal 30 kDa fragment coated o/n on 96-well DNA-BIND plates (3 µg/cm^3, +4 °C), blocked with BSA, citrullinated on the plate by PAD2 or PAD4 (2.4 U/ml, o/n, +37 °C) or left as control; integrin αVβ3 5 µg/ml for 1 h at room temperature in Delfia assay buffer; detected with anti-αV antibody L230 and Eu-labelled anti-mouse antibody, time-resolved fluorescence; BSA wells as background

recombinant integrin αVβ3 ectodomain (from UniProt P06756 31-992; P05106 27-718) (receptor)
reduction of binding against the control FN fragment: > 50%
